System: eighteen amino acid peptide containing the amino acid sequence PLGIA, covalently labeled with the same fluorophore near each end (HES structure)

Sequence of matrix metalloprotease -9 (MMP-9) (chain, as listed by the source): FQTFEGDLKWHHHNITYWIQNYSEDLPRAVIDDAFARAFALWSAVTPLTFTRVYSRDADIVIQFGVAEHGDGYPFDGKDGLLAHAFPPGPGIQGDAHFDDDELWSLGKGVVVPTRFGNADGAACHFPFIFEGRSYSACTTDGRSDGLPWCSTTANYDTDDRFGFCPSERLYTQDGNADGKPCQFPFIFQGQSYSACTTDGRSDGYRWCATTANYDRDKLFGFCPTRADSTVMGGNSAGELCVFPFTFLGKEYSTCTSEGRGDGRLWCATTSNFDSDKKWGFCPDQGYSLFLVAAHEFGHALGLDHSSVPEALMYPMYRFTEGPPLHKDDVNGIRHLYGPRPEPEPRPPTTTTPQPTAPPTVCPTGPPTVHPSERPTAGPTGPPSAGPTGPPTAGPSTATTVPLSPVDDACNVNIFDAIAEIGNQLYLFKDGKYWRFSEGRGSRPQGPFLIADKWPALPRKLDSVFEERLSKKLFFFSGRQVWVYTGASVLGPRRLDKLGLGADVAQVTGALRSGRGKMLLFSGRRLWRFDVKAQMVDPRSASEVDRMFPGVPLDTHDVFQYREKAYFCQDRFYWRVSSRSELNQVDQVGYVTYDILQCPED

Substance: matrix metalloprotease -9 (MMP-9)
- HPLC retention time (C18, reverse phase): After exposure to MMP-9, the major peaks were at ca. 30 and 31 minutes with the almost complete disappearance of the 38 minute peak
- cleavage of the peptide: The PLGIA sequence was recognized by matrix metalloprotease -9 (MMP-9) and is cleaved between the LG and the IA

Source: patent US20230201361
